According to patent US20050010967A1, “SK3-1B GFP transgenic mouse model for spinocerebellar ataxia and hyperexcitable behavior” (The Regents of the University of California, priority 2003, published 2005):

Assays:
[1] = target: T1, Kv1.3 channels in Jurkat T lymphocytes (Homo sapiens, UniProt P22001); assay: Whole cell patch clamp of endogenous Kv1.3 current in Jurkat T lymphocytes; assay type: cell-based
T1 construct: they express SK2 channels and no other SK channels, along with voltage-gated Kv1.3 channels; endogenous in cells; host or cells: Jurkat T lymphocytes (human)
T1 sequence (P22001 whole entry): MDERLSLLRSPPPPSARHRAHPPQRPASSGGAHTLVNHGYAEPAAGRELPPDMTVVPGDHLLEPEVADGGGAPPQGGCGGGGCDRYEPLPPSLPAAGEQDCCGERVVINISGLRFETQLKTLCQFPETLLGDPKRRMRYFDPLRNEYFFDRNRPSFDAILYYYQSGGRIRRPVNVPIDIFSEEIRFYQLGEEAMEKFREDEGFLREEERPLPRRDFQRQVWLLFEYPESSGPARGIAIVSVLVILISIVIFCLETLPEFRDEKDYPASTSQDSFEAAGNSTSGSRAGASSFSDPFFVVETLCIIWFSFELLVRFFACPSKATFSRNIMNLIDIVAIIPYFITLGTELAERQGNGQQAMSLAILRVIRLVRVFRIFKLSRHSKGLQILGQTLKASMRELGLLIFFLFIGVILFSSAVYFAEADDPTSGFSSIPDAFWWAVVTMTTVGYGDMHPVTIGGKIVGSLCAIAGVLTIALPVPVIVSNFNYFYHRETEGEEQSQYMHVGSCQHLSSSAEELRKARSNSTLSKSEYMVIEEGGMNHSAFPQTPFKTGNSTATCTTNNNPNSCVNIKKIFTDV
Excerpt: (§1) Electrophysiology. PC12 and Jurkat T cells were studied in the whole cell configuration of the patch clamp technique with a holding potential of −80 mV. We determined SK and Kv current amplitude in untransfected cells or in cells transfected with SK3-1B-GFP, SK3-1BIRES-GFP or control constructs (GFP vector alone, GFP-Kv1.7). […] Brightly GFP-positive cells were identified under a fluorescence microscope to allow the analysis of cells expressing high levels of the channel constructs for electrophysiological studies. Control constructs were expressed at equivalently high levels as assessed by the intensity of the GFP signal.
(§2) To activate SK channels, the pipette solution contained (in mM): 145 K^+ aspartate, 2 MgCl2, 10 HEPES, 10 K2EGTA, and 8.5 CaCl2 (1 μM free Ca^2+), pH 7.2, 290-310 mOsm. […] The amplitude of the KV current was measured as the maximum current at 30 mV in 160 Na^+ aspartate. […]
(§3) SK3-1B suppresses other SK channels in a dominant-inhibitory manner. The inventors next determined whether SK3-1B could suppress SK2 channels. […] Using the electrophysiological protocol described above for PC12 cells, SK2 and Kv1.3 currents were measured in Jurkat cells. The inward SK2 current, detected at potentials more negative than −40 mV, was blocked by Lei-Dab (FIG. 5a), a highly specific SK2 peptide inhibitor. […]

[2] = target: T2, SK2 channels in Jurkat T lymphocytes (Homo sapiens, UniProt Q9H2S1); assay: Whole cell patch clamp of endogenous SK2 current in Jurkat T lymphocytes; assay type: cell-based
T2 construct: The native SK2 current was suppressed by SK3-1B; endogenous in cells; host or cells: Jurkat T lymphocytes (human)
T2 sequence (Q9H2S1 whole entry): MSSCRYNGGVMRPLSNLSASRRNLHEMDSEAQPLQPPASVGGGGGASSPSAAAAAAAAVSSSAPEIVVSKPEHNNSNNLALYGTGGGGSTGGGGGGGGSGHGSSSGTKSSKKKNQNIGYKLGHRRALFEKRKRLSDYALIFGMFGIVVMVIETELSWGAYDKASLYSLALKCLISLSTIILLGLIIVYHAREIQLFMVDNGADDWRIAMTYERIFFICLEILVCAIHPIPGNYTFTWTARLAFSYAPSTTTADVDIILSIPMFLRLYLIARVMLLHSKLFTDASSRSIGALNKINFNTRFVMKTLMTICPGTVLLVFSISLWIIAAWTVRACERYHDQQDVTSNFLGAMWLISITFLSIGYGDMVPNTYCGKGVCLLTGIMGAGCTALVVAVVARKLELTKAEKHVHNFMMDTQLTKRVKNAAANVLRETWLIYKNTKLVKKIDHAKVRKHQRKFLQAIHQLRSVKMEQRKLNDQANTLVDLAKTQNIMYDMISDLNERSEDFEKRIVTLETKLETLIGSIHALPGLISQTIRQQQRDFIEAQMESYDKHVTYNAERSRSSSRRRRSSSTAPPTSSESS
Excerpt: as §1, §2, §3

[3] = target: T3, endogenous SK3 current in PC12 cells (Rattus norvegicus, UniProt P70605); assay: Whole cell patch clamp of endogenous SK (SK3) current in PC12 cells; assay type: cell-based; details: transfected PC12 cells, 48 h post-transfection; untransfected 6.24±1.57 nS
T3 construct: these cells natively express SK3 currents; endogenous in cells; host or cells: PC12 (rat pheochromocytoma)
T3 sequence (P70605 whole entry): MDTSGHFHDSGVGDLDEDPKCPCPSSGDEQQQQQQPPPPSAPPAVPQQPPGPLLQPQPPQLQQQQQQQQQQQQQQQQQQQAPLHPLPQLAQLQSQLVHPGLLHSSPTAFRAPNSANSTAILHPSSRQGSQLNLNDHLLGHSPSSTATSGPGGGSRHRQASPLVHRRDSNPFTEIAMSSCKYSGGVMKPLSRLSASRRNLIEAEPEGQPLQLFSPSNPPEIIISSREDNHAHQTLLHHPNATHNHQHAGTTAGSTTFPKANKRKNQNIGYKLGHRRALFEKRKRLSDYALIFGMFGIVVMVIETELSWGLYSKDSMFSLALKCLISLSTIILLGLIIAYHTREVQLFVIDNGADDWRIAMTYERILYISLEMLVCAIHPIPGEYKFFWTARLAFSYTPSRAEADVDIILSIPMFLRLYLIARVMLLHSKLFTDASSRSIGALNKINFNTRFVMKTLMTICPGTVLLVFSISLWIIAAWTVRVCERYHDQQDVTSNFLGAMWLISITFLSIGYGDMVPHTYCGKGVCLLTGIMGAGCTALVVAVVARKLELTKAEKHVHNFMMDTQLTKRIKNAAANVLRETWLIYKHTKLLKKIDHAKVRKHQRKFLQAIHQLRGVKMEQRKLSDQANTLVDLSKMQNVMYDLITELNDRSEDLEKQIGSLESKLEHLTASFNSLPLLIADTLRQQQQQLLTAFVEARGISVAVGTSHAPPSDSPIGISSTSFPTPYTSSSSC
Excerpt: as §1, §2

native SK3 in PC12 cells = assay: Immunolabeling and confocal microscopy of native SK3 localization in PC12 cells; assay type: cell-based, rat; details: transfected PC12 cells; untransfected 1.72±0.08
Sequence of native SK3 in PC12 cells (P70605 whole entry): as above
Procedure: Immunostaining. Following washing with Dulbecco's phosphate buffered saline (DPBS), cells were fixed with 4% paraformaldehyde for 20 min and washed 2× with DPBS. Permeabilization and blocking was done with 0.2% Triton-X-100 in 10% normal goat serum, followed by a wash with DPBS. Permeabilized cells were incubated with rabbit anti-SK3 antibody (Alomone Labs, Jerusalem, Israel) in a carrier solution containing 1% normal goat serum and 0.2 % sodium azide for 4 h at 4° C. Cells were subsequently washed and incubated with 1 μg/ml Alexa-Fluor 594 (referred to as Alexa-red)-conjugated goat-anti-rabbit-IgG (Molecular Probes) for 1 h at room temperature. […] As an additional test of antibody specificity, the anti-SK3 antibody was shown not to react with SK3-1B protein, an isoform that lacks the SK3 N-terminal epitope detected by the antibody (data not shown). […]
Confocal microscopy. […] The Scion image 4.0.2 program (Scion Corporation, Frederick, Md., USA) was used to determine the pixel intensity of fluorescence that tagged presumptive intracellular and membrane SK3 protein. Three axes were drawn through each stained cell and pixel intensities were measured along each of these axes. […] The average ratio of presumptive membrane to intracellular fluorescence was estimated from these intensity histograms. The expression level of each transfected construct was quantitated as mean pixel intensity. […]

[4] = system: endogenous Kv current in PC12 cells; assay: Whole cell patch clamp of endogenous Kv current in PC12 cells; assay type: cell-based, rat; details: transfected PC12 cells; 160 mM Na+ aspartate external; untransfected 707.94±147.7 pA
Excerpt: as §1, §2

[5] = 100 nM Lei-Dab, untransfected Jurkat T lymphocytes
[6] = transfected Jurkat T lymphocytes, n=4

Molecule | Effect on Kv1.3 current [1, 5] | Effect on inward SK2 current [2, 5] | Kv1.3 current in transfected Jurkat T lymphocytes [1, 6] | SK2 current in transfected Jurkat T lymphocytes [2, 6] | SK currents (mean±SEM), slope conductance at −80 mV [3] | Ratio of presumptive membrane to intracellular SK3 fluorescence (mean±SEM) (native SK3 in PC12 cells) | Kv currents (mean±SEM), maximum current at 30 mV [4]
Lei-Dab [reference compound] | unaffected | blocked |  |  |  |  | 
SK3-1B-GFP: SK3-1B coding region inserted in-frame upstream to GFP in pEGFP-N1 expression vector; GFP-tagged truncated SK3 splice variant (protein, left off: large carriers, SK3-1B coding region inserted in-frame upstream to GFP in pEGFP-N1 expression vector; GFP-tagged truncated SK3 splice variant) MFSLALKCLISLSTIILLGLIIAYHTREVQLFVIDNGADDWRIAMTYERILYISLEMLVCAIHPIPGEYKFFWTARLAFSYTPSRAEADVDIILSIPMFLRLYLIARVMLLHSKLFTDASSRSIGALNKINFNTRFVMKTLMTICPGTVLLVFSISLWIIAAWTVRVCERYHDQQDVTSNFLGAMWLISITFLSIGYGDMVPHTYCGKGVCLLTGIMGAGCTALVVAVVARKLELTKAEKHVHNFMMDTQLTKRIKNAAANVLRETWLIYKHTKLLKKIDHAKVRKHQRKFLQAIHQLRSVKMEQRKLSDQANTLVDLSKMQNVMYDLITELNDRSEDLEKQIGSLESKLEHLTASFNSLPLLIADTLRQQQQQLLSAIIEARGVSVAVGTTHTPISDSPIGVSSTSFPTPYTSSSSC |  |  | resembles that in untransfected cells | no SK2 current is observed | 0.68±0.08 nS | 1.1±0.09 | 475.96±61.78 pA
SK3-1B-IRES-GFP: Untagged SK3-1B in bicistronic pIRES2-EGFP vector with GFP driven by an internal ribosome entry site (protein) MFSLALKCLISLSTIILLGLIIAYHTREVQLFVIDNGADDWRIAMTYERILYISLEMLVCAIHPIPGEYKFFWTARLAFSYTPSRAEADVDIILSIPMFLRLYLIARVMLLHSKLFTDASSRSIGALNKINFNTRFVMKTLMTICPGTVLLVFSISLWIIAAWTVRVCERYHDQQDVTSNFLGAMWLISITFLSIGYGDMVPHTYCGKGVCLLTGIMGAGCTALVVAVVARKLELTKAEKHVHNFMMDTQLTKRIKNAAANVLRETWLIYKHTKLLKKIDHAKVRKHQRKFLQAIHQLRSVKMEQRKLSDQANTLVDLSKMQNVMYDLITELNDRSEDLEKQIGSLESKLEHLTASFNSLPLLIADTLRQQQQQLLSAIIEARGVSVAVGTTHTPISDSPIGVSSTSFPTPYTSSSSC |  |  |  |  | 1.1±0.03 nS |  | 560.37±75.9 pA
